From patent US11535650 (RA PHARMACEUTICALS, dated 2022) come the findings set out here.

B1: R3040 (peptide)
peptide: Ac-[Nva]C[Phg]T[Trp(7-aza)]EY[NMeS]HC[Nva]P[Nva]
modifications: bridge 2-10
B2: R3083 (peptide)
peptide: Ac-VC[Phg]T[Trp(7-aza)]EY[NMeS]AC[Nva]-NH2
modifications: linker 2-10 via mXylyl(5)
B3: R3080 (peptide)
peptide: Ac-[Nva]C[Phg]T[Trp(7-aza)]EY[NMeS]C[Nva]-NH2
modifications: linker 2-9 via mXylyl(5)
B4: R3006 (peptide)
peptide: Ac-YEN[Tle]Y[Trp(7-aza)]EY[Sar][Nva][NMeS]-NH2
SMILES: CCC[C@H](NC(=O)CN(C)C(=O)[C@H](Cc1ccc(O)cc1)NC(=O)[C@H](CCC(=O)O)NC(=O)[C@H](Cc1c[nH]c2ncccc12)NC(=O)[C@H](Cc1ccc(O)cc1)NC(=O)[C@@H](NC(=O)[C@H](CC(N)=O)NC(=O)[C@H](CCC(=O)O)NC(=O)[C@H](Cc1ccc(O)cc1)NC(C)=O)C(C)(C)C)C(=O)N(C)[C@@H](CO)C(N)=O
B5: R3052 (peptide)
peptide: [Nva]CY[Tle][Phg]N[Sar]LC[Phg][NMeA]-NH2
modifications: linker 2-9 via mXylyl(5)
B6: R3007 (peptide)
peptide: Ac-[Nva]CKE[Phg]YC[NMeS][Tle]K[Trp(7-aza)]EY-NH2
modifications: linker 2-7 via mXylyl
B7: R3087 (peptide)
peptide: Ac-[Nva]C[Phg(2-OMe)]T[Trp(7-aza)]EY[NMeS]HC[Nva]-NH2
modifications: linker 2-10 via mXylyl(5)
B8: R3005 (peptide)
peptide: Ac-[Nva]CY[Trp(7-aza)][Sar][Tle][Nva][Trp(7-aza)]EYP[Phg]P-NH2
SMILES: CCC[C@H](NC(C)=O)C(=O)N[C@@H](CS)C(=O)N[C@@H](Cc1ccc(O)cc1)C(=O)N[C@@H](Cc1c[nH]c2ncccc12)C(=O)N(C)CC(=O)N[C@H](C(=O)N[C@@H](CCC)C(=O)N[C@@H](Cc1c[nH]c2ncccc12)C(=O)N[C@@H](CCC(=O)O)C(=O)N[C@@H](Cc1ccc(O)cc1)C(=O)N1CCC[C@H]1C(=O)N[C@H](C(=O)N1CCC[C@H]1C(N)=O)c1ccccc1)C(C)(C)C
B9: R3074 (peptide)
peptide: Ac-[Nva]C[Phg]T[Trp(7-aza)]E[Tyr(OMe)][NMeS]HC[Nva]-NH2
modifications: linker 2-10 via mXylyl(5)
B10: R3086 (peptide)
peptide: Ac-[Nva]SYEC[Tle]Y[Trp(7-aza)]EYP[Chg]C[Nva]-NH2
modifications: linker 5-13 via mXylyl(5)
B11: R3088 (peptide)
peptide: Ac-[Nva]C[Phg]T[Trp(5-F)]EY[NMeS]AC[Nva]-NH2
modifications: linker 2-10 via mXylyl(5)
B12: R3053 (peptide)
peptide: [Nva]CCN[Tle][Phg]C[Tle][NMeS]C[Tle]-NH2
modifications: linker (positions not given here) via mXylylene; also: mXylyl-bicyclo: Cys pairing not given here
B13: R3084 (peptide)
peptide: Ac-[Nva]C[Phg]T[Trp(7-aza)]EYSAC[Nva]-NH2
modifications: linker 2-10 via mXylyl(5)
B14: R3077 (peptide)
peptide: Ac-[Nva][Nva]YEN[Tle]Y[Trp(7-aza)]EYP[Chg][Nva]K
modifications: not fully specified (residue 14, C-terminus); printed as Ac-Nvl-Nvl-Y-E-N-Tbg-Y-azaTrp-E-Y-P-Chg-Nvl-K-(PEG2000) NH2; also: PEG2000 at C-terminal Lys, attachment site unstated
B15: R3072 (peptide)
peptide: Ac-[Nva][Nva]YEN[Tle]Y[Trp(7-aza)]EYP[Chg][Nva]K-NH2
SMILES: CCC[C@H](NC(C)=O)C(=O)N[C@@H](CCC)C(=O)N[C@@H](Cc1ccc(O)cc1)C(=O)N[C@@H](CCC(=O)O)C(=O)N[C@@H](CC(N)=O)C(=O)N[C@H](C(=O)N[C@@H](Cc1ccc(O)cc1)C(=O)N[C@@H](Cc1c[nH]c2ncccc12)C(=O)N[C@@H](CCC(=O)O)C(=O)N[C@@H](Cc1ccc(O)cc1)C(=O)N1CCC[C@H]1C(=O)N[C@H](C(=O)N[C@@H](CCC)C(=O)N[C@@H](CCCCN)C(N)=O)C1CCCCC1)C(C)(C)C
B16: R3049 (peptide)
peptide: Ac-[Nva]C[Phg]T[Trp(7-aza)]EY[NMeS]HC[Nva]-NH2
modifications: linker 2-10 via oXylylene
B17: R3065 (peptide)
peptide: Ac-[Nva]C[Phg]T[Trp(7-aza)]EYPHC[Nva]-NH2
modifications: linker 2-10 via pXylylene
B18: R3075 (peptide)
peptide: [Nva]CY[NMeS][Phg][NMePhe(4-F)][NMeS]H[NMePhe(4-F)]GC-NH2
modifications: linker 2-11 via mXylyl(5)
B19: R3047 (peptide)
peptide: MCVERFC-NH2
modifications: linker 2-7 via mXylyl(5)
B20: R3041 (peptide)
peptide: Ac-YEN[Tle]YWEYP[Phg][Nva]-NH2
SMILES: CCC[C@H](NC(=O)[C@@H](NC(=O)[C@@H]1CCCN1C(=O)[C@H](Cc1ccc(O)cc1)NC(=O)[C@H](CCC(=O)O)NC(=O)[C@H](Cc1c[nH]c2ccccc12)NC(=O)[C@H](Cc1ccc(O)cc1)NC(=O)[C@@H](NC(=O)[C@H](CC(N)=O)NC(=O)[C@H](CCC(=O)O)NC(=O)[C@H](Cc1ccc(O)cc1)NC(C)=O)C(C)(C)C)c1ccccc1)C(N)=O
B21: R3051 (peptide)
peptide: [Nva]CY[NMeS][Phg][NMePhe(4-F)][NMeS]H[NMePhe(4-F)][Sar]C-NH2
modifications: linker 2-11 via mXylyl(5)
B22: R3046 (peptide)
peptide: MCVERFCDV-NH2
modifications: linker 2-7 via mXylyl(5)
B23: R3045 (peptide)
peptide: MCVERFCDVY-NH2
modifications: linker 2-7 via mXylyl
B24: R3039 (peptide)
peptide: Ac-[Nva]C[Phg]T[Trp(7-aza)]EY[NMeS]HCA-NH2
modifications: linker 2-10 via mXylyl
B25: R3044 (peptide)
peptide: MCVERFCDVYW-NH2
modifications: linker 2-7 via mXylyl
B26: R3057 (peptide)
peptide: MCVERFCD[Tle]Y[Trp(7-aza)]EYP[Phg][Nva]-NH2
modifications: linker 2-7 via mXylyl(5)
B27: R3042 (peptide)
peptide: Ac-[Nva]C[Phg]T[Trp(7-aza)]EY[NMeS]HC[Nva]-NH2
modifications: bridge 2-10
B28: R3058 (peptide)
peptide: Ac-[Nva]C[Chg]T[Trp(7-aza)]EY[NMeS]HC[Nva]-NH2
modifications: linker 2-10 via pXylylene
B29: R3078 (peptide)
peptide: PEG2000-[Nva][Nva]YEN[Tle]Y[Trp(7-aza)]EYP[Phg][Nva]-NH2
B30: R3073 (peptide)
peptide: Ac-[Nva]C[Phg]T[Trp(7-aza)]E[Phe(4-F)][NMeS]HC[Nva]-NH2
modifications: linker 2-10 via mXylyl(5)
B31: R3004 (peptide)
peptide: Ac-[Nva]CYNN[Tle]E[Trp(7-aza)]EYP[Phg][Tle]-NH2
SMILES: CCC[C@H](NC(C)=O)C(=O)N[C@@H](CS)C(=O)N[C@@H](Cc1ccc(O)cc1)C(=O)N[C@@H](CC(N)=O)C(=O)N[C@@H](CC(N)=O)C(=O)N[C@H](C(=O)N[C@@H](CCC(=O)O)C(=O)N[C@@H](Cc1c[nH]c2ncccc12)C(=O)N[C@@H](CCC(=O)O)C(=O)N[C@@H](Cc1ccc(O)cc1)C(=O)N1CCC[C@H]1C(=O)N[C@H](C(=O)N[C@H](C(N)=O)C(C)(C)C)c1ccccc1)C(C)(C)C
B32: R3048 (peptide)
peptide: Ac-CVERFCDVYWEF-NH2
modifications: linker 1-6 via mXylyl(5)

Starred links: 1 amine or outer side, 2 acyl side, 3 side chain; linkers in the order of their positions; H or OH if unused. Positions of bridges follow the written chain, without caps; N, C: chain ends. Non-standard residues stand in square brackets, D forms with d. Primed or numbered codes have the meaning given here. No end group written: not given here. Tyr(OMe) = O-methyl tyrosine, COc1ccc(C[C@H](N[*:1])C(=O)[*:2])cc1; mXylyl(5) = bridging moiety between the two residues (meta-xylyl); mXylyl = bridging moiety between residues (mXylyl(i,j)); Trp(5-F) = N[C@@H](Cc1c[nH]c2ccc(F)cc12)C(=O)O; Trp(7-aza) = N[C@@H](Cc1c[nH]c2ncccc12)C(=O)O; NMePhe(4-F) = CN[C@@H](Cc1ccc(F)cc1)C(=O)O; PEG2000 = polyethylene glycol, 2000 Da; Phe(4-F) = N[C@@H](Cc1ccc(F)cc1)C(=O)O; Phg(2-OMe) = COc1ccccc1[C@H](N)C(=O)O; mXylylene = c1cc(C[*:1])cc(C[*:2])c1; oXylylene = c1ccc(C[*:2])c(C[*:1])c1; pXylylene = c1cc(C[*:2])ccc1C[*:1]; Chg = N[C@H](C(=O)O)C1CCCCC1; Phg = N[C@H](C(=O)O)c1ccccc1; Tle = CC(C)(C)[C@H](N)C(=O)O; NMeS = CN[C@@H](CO)C(=O)O; NMeA = CN[C@@H](C)C(=O)O; Nva = CCC[C@H](N)C(=O)O; Sar = CNCC(=O)O

This assay addresses human C5 protein (human, UniProt P01031 19-673; P01031 678-1676). Put plainly: cell-based or functional assay.
Regarding B1, the “Avg. IC50, human hemolysis assay (complete human sera)” value (shortened to “Avg. IC50, human hemolysis assay”) is more than 100000 nM.
Take B2: the “Avg. IC50, human hemolysis assay” value is more than 25000 nM.
To B3 belongs more than 50000 nM.
Regarding B4, the “Avg. IC50, human hemolysis assay” value turned out to be 267 nM.
Under B5 stands more than 100000 nM; under B6, 314 nM.
Consider B7, for which the “Avg. IC50, human hemolysis assay” value was more than 25000 nM.
On to B8, for which the “Avg. IC50, human hemolysis assay” value was 66.7 nM.
To B9 belongs 308 nM; to B10, more than 50000 nM; to B11, more than 100000 nM.
Consider B12, for which the “Avg. IC50, human hemolysis assay” value is more than 100000 nM.
As for B13, the “Avg. IC50, human hemolysis assay” value is more than 100000 nM.
To B14 belongs 81.7 nM.
On to B15, for which the “Avg. IC50, human hemolysis assay” value stood at 26.9 nM.
To B16 belongs more than 3100 nM; to B17, 394 nM.
To B18 belongs more than 75000 nM; to B19, more than 100000 nM; to B20, 71.3 nM.
Under B21 stands more than 100000 nM.
In the case of B22, the “Avg. IC50, human hemolysis assay” value is more than 100000 nM.
To B23 belongs more than 100000 nM.
To B24 belongs 240 nM.
B25: the “Avg. IC50, human hemolysis assay” value is more than 50000 nM.
Turning to B26, the “Avg. IC50, human hemolysis assay” value came to 12.4 nM.
To B27 belongs more than 100000 nM; to B28, more than 10000 nM; to B29, 568 nM.
Under B30 stands 403 nM; under B31, 53.5 nM; under B32, 19.3 nM.
